# Laboratory results from US20120135923A1 (IPSEN PHARMA S A S, published 2012).
# Bridge positions count the residues as written; N and C are the ends. Square brackets hold non-standard residues; d marks the D form. Ends that are not written are not given here. d2Nal = N[C@H](Cc1ccc2ccccc2c1)C(=O)O; Nle = CCCC[C@H](N)C(=O)O; Ac3c = NC1(C(=O)O)CC1; GABA = NCCCC(=O)O; βAla = NCCC(=O)O
# B1: Phe-c(Cys-His-D-Phe-Arg-Trp-Gaba-Cys)-NH2 (peptide)
# peptide: FCH[dF]RW[GABA]C-NH2
# modifications: disulfide 2-8; N-terminus assumed
# SMILES: N=C(N)NCCC[C@@H]1NC(=O)[C@@H](Cc2ccccc2)NC(=O)[C@H](Cc2c[nH]cn2)NC(=O)[C@@H](NC(=O)[C@@H](N)Cc2ccccc2)CSSC[C@@H](C(N)=O)NC(=O)CCCNC(=O)[C@H](Cc2c[nH]c3ccccc23)NC1=O
# B2: Ac-Nle-c(Cys-His-D-Phe-Arg-D-Trp-β-Ala-Cys)-NH2 (peptide)
# peptide: Ac-[Nle]CH[dF]R[dW][βAla]C-NH2
# modifications: disulfide 2-8
# SMILES: CCCC[C@H](NC(C)=O)C(=O)N[C@H]1CSSC[C@@H](C(N)=O)NC(=O)CCNC(=O)[C@@H](Cc2c[nH]c3ccccc23)NC(=O)[C@H](CCCNC(=N)N)NC(=O)[C@@H](Cc2ccccc2)NC(=O)[C@H](Cc2c[nH]cn2)NC1=O
# B3: Ac-Nle-c(Cys-D-Ala-His-D-Phe-Arg-Trp-Cys)-(Doc)2-Tyr-Gly-Arg-Lys-Lys-Arg-Arg-Gln-Arg-Arg-Arg-NH2 (peptide)
# peptide: XCAHFRWCXXYGRKKRRQRRR
# modifications: N-terminal Ac; Nle at 1; D-Ala at 3; D-Phe at 5; Doc at 9 and 10; disulfide Cys2-Cys8; C-terminal NH2
# B4: c[Hydantoin(C(O)-(Asp-A3c))-D-2-Nal-Arg-Trp-Lys]-NH2 (peptide)
# peptide: D[Ac3c][d2Nal]RWK-NH2
# modifications: lactam 1-6; also: hydantoin ring: N-terminal N of Asp1 and backbone N of residue 2 bridged by one C(O), bridge at N via C(O), other end not in the chain
# Target: T1, hMC1-R (human, UniProt Q01726 1-317)
# T1 construct: whole, on cells; Assayed as membranes of CHO-K1 cells expressing the receptor; also called hMC-R receptor subtype 1; melanocyte-specific receptor (MC1-R)
# Experiment: ratio Ki hMC1-R / Ki hMC4-R, same assay
# Procedure: Cellular membranes used for the in vitro receptor binding assays were obtained from transgenic CHO-K1 cells stably expressing hMC-R receptor subtypes 1, 3, 4 or 5. […] The pellets were resuspended in the same buffer and centrifuged at 50,000 g for 10 minutes at approximately 4° C. The washed pellets containing the cellular membranes were stored at approximately −80° C.
# Competitive inhibition of [¹²⁵I](Tyr²)-(Nle⁴-D-Phe⁷)α-MSH ([¹²⁵I]-NDP-α-MSH, Amersham Biosciences®) binding was carried out in polypropylene 96 well plates. Cell membranes (1-10 μg protein/well) prepared as described above were incubated in 50 mM Tris-HCl at pH 7.4 containing 0.2% bovine serum albumin (BSA), 5 mM MgCl₂, 1 mM CaCl₂ and 0.1 mg/mL bacitracin, with increasing concentrations of the test compound and 0.1-0.3 nM […] for approximately 90-120 minutes at approximately 37° C. Bound [¹²⁵I]-NDP-α-MSH ligand was separated from free [¹²⁵I]-NDP-α-MSH by filtration through GF/C glass fiber filter plates (Unifilter®; Packard) presoaked with 0.1% (w/v) polyethylenimine (PEI), using a Packard Filtermate® harvester. Filters were washed three times with 50 mM Tris-HCl at pH 7.4 at a temperature of approximately 0-4° C. and then assayed for radioactivity using a Packard Topcount® scintillation counter. Binding data were analyzed by computer-assisted non-linear regression analysis (XL fit; IDBS).
# T1 sequence (Q01726 whole entry): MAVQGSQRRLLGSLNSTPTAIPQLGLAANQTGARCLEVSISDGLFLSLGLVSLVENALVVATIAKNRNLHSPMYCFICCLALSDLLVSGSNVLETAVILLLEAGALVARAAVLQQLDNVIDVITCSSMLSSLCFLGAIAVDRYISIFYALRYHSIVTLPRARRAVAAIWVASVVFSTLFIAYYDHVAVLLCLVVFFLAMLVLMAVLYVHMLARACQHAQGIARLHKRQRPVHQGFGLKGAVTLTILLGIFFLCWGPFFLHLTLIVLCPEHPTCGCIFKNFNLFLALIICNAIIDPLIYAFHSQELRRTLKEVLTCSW
row,Binder,Ki hMC1-R/MC4-R
1,Ac-FCH[dF]RW[GABA]C-NH2 (disulfide 2-8) [Ac-Phe-c(Cys-His-D-Phe-Arg-Trp-Gaba-Cys)-NH2],0.12
2,Ac-C[dA]H[dF]RWAC-NH2 (disulfide 1-8) [Ac-c(Cys-D-Ala-His-D-Phe-Arg-Trp-Ala-Cys)-NH2],2.06
3,Ac-[Nle]C[dA]H[dF]RWAC-NH2 (disulfide 2-9) [Ac-Nle-c(Cys-D-Ala-His-D-Phe-Arg-Trp-Ala-Cys)-NH2],0.41
4,B1,0.04
5,B2,0.16

# Target: T1, hMC1-R
# Experiment: competition with [125I]-NDP-α-MSH, CHO-K1 membranes
row,Binder,Ki
1,Ac-C[dA]H[dF]RWAC-NH2 (disulfide 1-8) [Ac-c(Cys-D-Ala-His-D-Phe-Arg-Trp-Ala-Cys)-NH2],0.199 µM
2,Ac-[Nle]C[dA]H[dF]RWAC-NH2 (disulfide 2-9) [Ac-Nle-c(Cys-D-Ala-His-D-Phe-Arg-Trp-Ala-Cys)-NH2],0.00912 µM
3,B1,0.000186 µM
4,B2,0.000323 µM

# Target: T2, hMC5-R (human, UniProt P33032 1-325)
# T2 construct: whole, on cells; Assayed as membranes of CHO-K1 cells expressing the receptor; also called hMC-R receptor subtype 5; melanocortin-5 receptor (MC5-R)
# Experiment: as above
# T2 sequence (P33032 whole entry): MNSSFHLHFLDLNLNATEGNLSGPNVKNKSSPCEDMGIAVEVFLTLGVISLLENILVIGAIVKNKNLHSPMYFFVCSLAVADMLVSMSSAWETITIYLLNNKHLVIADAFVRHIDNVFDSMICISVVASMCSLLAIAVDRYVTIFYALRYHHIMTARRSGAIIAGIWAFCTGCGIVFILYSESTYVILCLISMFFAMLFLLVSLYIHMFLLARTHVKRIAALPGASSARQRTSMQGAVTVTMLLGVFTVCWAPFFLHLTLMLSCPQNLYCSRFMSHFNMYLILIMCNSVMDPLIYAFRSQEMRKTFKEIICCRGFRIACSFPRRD
row,Binder,Ki
1,Ac-[Nle]C[dA]H[dF]RWAC-NH2 (disulfide 2-9) [Ac-Nle-c(Cys-D-Ala-His-D-Phe-Arg-Trp-Ala-Cys)-NH2],2.86 µM
2,B1,0.000537 µM
3,B2,0.024 µM

# Target: T3, hMC3-R (human, UniProt P41968 1-323)
# T3 construct: whole, on cells; Assayed as membranes of CHO-K1 cells expressing the receptor; also called hMC-R receptor subtype 3; melacortin-3 (MC3-R)
# Experiment: as above
# T3 sequence (P41968 whole entry): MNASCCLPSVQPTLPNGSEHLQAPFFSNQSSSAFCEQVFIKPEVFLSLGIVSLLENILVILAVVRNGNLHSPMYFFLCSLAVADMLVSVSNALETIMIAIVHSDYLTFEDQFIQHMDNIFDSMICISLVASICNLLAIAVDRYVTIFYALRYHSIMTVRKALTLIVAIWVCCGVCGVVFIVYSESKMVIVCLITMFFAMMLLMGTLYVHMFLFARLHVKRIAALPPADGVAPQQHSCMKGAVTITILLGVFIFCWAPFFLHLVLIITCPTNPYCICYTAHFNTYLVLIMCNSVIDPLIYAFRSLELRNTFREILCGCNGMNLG
row,Binder,Ki
1,Ac-C[dA]H[dF]RWAC-NH2 (disulfide 1-8) [Ac-c(Cys-D-Ala-His-D-Phe-Arg-Trp-Ala-Cys)-NH2],5.99 µM
2,Ac-[Nle]C[dA]H[dF]RWAC-NH2 (disulfide 2-9) [Ac-Nle-c(Cys-D-Ala-His-D-Phe-Arg-Trp-Ala-Cys)-NH2],1.13 µM
3,B2,0.0141 µM

# Target: T4, hMC4-R (human, UniProt P32245 1-332)
# T4 construct: whole, on cells; Assayed as membranes of CHO-K1 cells expressing the receptor; also called hMC-R receptor subtype 4; melanocortin-4 (MC4-R)
# Experiment: as above
# T4 sequence (P32245 whole entry): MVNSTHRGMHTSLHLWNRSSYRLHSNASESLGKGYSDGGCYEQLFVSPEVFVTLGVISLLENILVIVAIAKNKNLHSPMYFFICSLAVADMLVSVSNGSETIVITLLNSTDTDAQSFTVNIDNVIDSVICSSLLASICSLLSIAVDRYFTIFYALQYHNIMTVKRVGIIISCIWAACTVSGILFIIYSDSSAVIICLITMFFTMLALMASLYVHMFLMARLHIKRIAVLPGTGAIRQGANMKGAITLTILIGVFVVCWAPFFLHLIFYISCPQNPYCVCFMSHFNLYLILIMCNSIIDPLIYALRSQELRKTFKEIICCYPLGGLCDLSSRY
row,Binder,Ki
1,Ac-C[dA]H[dF]RWAC-NH2 (disulfide 1-8) [Ac-c(Cys-D-Ala-His-D-Phe-Arg-Trp-Ala-Cys)-NH2],0.0967 µM
2,Ac-[Nle]C[dA]H[dF]RWAC-NH2 (disulfide 2-9) [Ac-Nle-c(Cys-D-Ala-His-D-Phe-Arg-Trp-Ala-Cys)-NH2],0.0221 µM
3,B1,0.00493 µM
4,B2,0.00196 µM

# Target: T5, human melanocortin receptor subtype 4 (hMC4-R) (human, UniProt P32245 1-332)
# T5 construct: whole, on cells; membranes of CHO-K1 cells
# Experiment: [125I]-NDP-α-MSH competition, membranes
# T5 sequence (P32245 whole entry): as above
row,Binder,Ki
1,GCEH[dF]RWC-NH2 (disulfide 2-8; also: hydantoin ring from C(O) with Gly1-Cys2) [c[Hydantoin(C(O)-(Gly-Cys))-Glu-His-D-Phe-Arg-Trp-Cys]-NH2],0.00892 µM
2,B3,0.000635 µM
3,B4,0.42 µM

# Target: T6, human melanocortin receptor subtype 5 (hMC5-R) (human, UniProt P33032 1-325)
# T6 construct: whole, on cells; membranes of CHO-K1 cells
# Experiment: [125I]-NDP-α-MSH competition, membranes
# T6 sequence (P33032 whole entry): as the sequence (P33032 whole entry) above
row,Binder,Ki
1,GCEH[dF]RWC-NH2 (disulfide 2-8; also: hydantoin ring from C(O) with Gly1-Cys2) [c[Hydantoin(C(O)-(Gly-Cys))-Glu-His-D-Phe-Arg-Trp-Cys]-NH2],3.07 µM
2,B3,0.118 µM
3,B4,2.88 µM

# Target: T7, human melanocortin receptor subtype 3 (hMC3-R) (human, UniProt P41968 1-323)
# T7 construct: whole, on cells; membranes of CHO-K1 cells
# Experiment: [125I]-NDP-α-MSH competition, membranes
# T7 sequence (P41968 whole entry): as the sequence (P41968 whole entry) above
row,Binder,Ki
1,GCEH[dF]RWC-NH2 (disulfide 2-8; also: hydantoin ring from C(O) with Gly1-Cys2) [c[Hydantoin(C(O)-(Gly-Cys))-Glu-His-D-Phe-Arg-Trp-Cys]-NH2],0.305 µM
2,B3,0.000665 µM
3,B4,1.92 µM

# Target: T8, human melanocortin receptor subtype 1 (hMC1-R) (human, UniProt Q01726 1-317)
# T8 construct: whole, on cells; membranes of CHO-K1 cells
# Experiment: [125I]-NDP-α-MSH competition, membranes
# T8 sequence (Q01726 whole entry): as the sequence (Q01726 whole entry) above
row,Binder,Ki
1,GCEH[dF]RWC-NH2 (disulfide 2-8; also: hydantoin ring from C(O) with Gly1-Cys2) [c[Hydantoin(C(O)-(Gly-Cys))-Glu-His-D-Phe-Arg-Trp-Cys]-NH2],0.0156 µM
2,B3,0.000211 µM
3,B4,7.57 µM
